Results as given in patent US20150110781A1.
Where a chain is given by its changes, count along the chain named.

B1: Ch2G11 (antibody, V domains shown)
VH: EVQLVESGGGLVKPGGSLILSCAASGFTFSGFAMSWVRQTPEKRLEWVATISSGGTYTYSPDSVMGRFTISRDNAKNTLYLQMSSLRSEDTAMYYCARRLRRNYYSMDYWGQGTSVTVSS
VL: DVVLTQAPLSLPVNIGDQASISCKSTKSLLNSDGFTYLDWYLQKPGQSPQLLIYLVSNRFSGVPDRFSGSGSGTDFTLKISRVEAEDLGIYFCFQSNYLPFTFGSGTKLEIKR
B2: Ch1A9 (antibody, V domains shown)
VH: EIQLQQTGPELVKPGASVKISCKASGYSFTDYIMLWVKQSHGKSLEWIGDIYPYYGSTSYNLKFKGKATLTVDKSSSTAYMQLNSLTSEDSAVYYCARQGGDGNYVLFDYWGQGTTLTVSS
VL: DIVMTQSQKFMSTSVGDRVSVTCKASQNVGTTVAWYQQKPGQSPKALIYSASYRYSGVPDRFTGSGSGTDFTLTISNVQSEDLAEYFCQQYNSYPFTFGSGTKLEIKR
B3: Hu1A9-1 (antibody, V domains shown)
VH: QVQLVQSGAEVKKPGASVKVSCKASGYSFTDYIMLWVRQAPGQRLEWIGDIYPYYGSTSYNLKFKGKATLTVDTSASTAYMELSSLRSEDTAVYYCARQGGDGNYVLFDYWGQGTLVTVSS
VL: DIQMTQSPSSLSASVGDRVTITCKASQNVGTTVAWYQQKPGKAPKALIYSASYRYSGVPSRFSGSGSGTDFTLTISSLQPEDFATYYCQQYNSYPFTFGQGTKLEIKR
B4: Hu1A9-2 (antibody, V domains shown)
VH: B3 VH
VL: B3 VL with A46V

What was measured:
[1] = target: Inactivated Rabies Virus Vaccine (Rabipur®, Chiron Behring GmbH & Co.) (rabies virus)
[2] = target: CVS-11 rabies virus (rabies virus) (UniProt O92284); test: cell-based or functional assay
[3] = target: Inactivated Rabies Virus Vaccine (Rabipur®, Chiron Behring GmbH & Co.) (rabies virus); test: ELISA, plate coated with 1/500-diluted Rabipur, anti-human IgG Fcγ-HRP detection

UniProt O92284, sequence (O92284 20-524): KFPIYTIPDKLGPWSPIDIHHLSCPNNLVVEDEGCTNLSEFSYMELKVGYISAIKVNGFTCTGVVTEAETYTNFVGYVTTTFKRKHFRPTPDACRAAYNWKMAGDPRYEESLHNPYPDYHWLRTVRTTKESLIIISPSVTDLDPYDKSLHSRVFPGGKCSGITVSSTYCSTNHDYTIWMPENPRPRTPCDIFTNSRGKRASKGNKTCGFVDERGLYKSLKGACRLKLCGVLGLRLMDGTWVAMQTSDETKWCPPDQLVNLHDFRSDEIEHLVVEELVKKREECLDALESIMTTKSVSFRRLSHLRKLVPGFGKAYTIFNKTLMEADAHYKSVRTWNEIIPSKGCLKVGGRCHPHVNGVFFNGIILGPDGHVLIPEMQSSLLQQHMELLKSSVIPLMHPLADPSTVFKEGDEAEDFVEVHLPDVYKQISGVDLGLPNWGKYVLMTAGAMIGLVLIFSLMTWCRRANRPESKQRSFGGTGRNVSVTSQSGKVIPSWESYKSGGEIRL

Binder	IC50 [1] [µg/mL]	Neutralization potency (IU/mg), FAVN [2] [IU/mg]	Neutralization potency (IU/mg), RFFIT [2] [IU/mg]	EC50 [3] [µg/mL]
B1	0.11	8310	1260	–
B2	–	533	1260	0.052
B3	–	–	–	0.025
B4	–	–	–	0.016
